The target of assay [1] is T1, recombinant LepR-Fc fusion protein (human, UniProt P48357 22-839).
T1 sequence (looked up): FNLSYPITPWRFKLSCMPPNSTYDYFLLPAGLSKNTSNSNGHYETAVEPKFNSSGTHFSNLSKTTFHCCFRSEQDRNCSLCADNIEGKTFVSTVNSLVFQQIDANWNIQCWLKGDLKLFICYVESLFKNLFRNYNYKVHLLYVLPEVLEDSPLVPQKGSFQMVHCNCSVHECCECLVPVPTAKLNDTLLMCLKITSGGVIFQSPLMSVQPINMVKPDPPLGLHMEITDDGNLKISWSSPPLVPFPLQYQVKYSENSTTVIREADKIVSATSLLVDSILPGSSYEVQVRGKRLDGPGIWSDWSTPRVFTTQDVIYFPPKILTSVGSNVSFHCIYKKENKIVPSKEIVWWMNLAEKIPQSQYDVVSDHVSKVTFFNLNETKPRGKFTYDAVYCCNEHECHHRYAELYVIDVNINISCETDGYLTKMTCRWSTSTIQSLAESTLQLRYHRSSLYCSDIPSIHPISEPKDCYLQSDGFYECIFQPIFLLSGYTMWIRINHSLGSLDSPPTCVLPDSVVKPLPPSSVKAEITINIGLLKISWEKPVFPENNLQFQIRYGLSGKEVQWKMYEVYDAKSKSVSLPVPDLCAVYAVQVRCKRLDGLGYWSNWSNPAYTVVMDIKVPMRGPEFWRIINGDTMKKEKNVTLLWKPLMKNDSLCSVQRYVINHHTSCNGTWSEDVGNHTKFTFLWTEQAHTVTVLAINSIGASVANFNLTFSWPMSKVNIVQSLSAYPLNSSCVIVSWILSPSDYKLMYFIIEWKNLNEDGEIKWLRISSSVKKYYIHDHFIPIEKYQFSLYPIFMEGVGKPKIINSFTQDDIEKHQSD

Assay [2] has as its target T1, recombinant LepR-Fc fusion protein. Description: cell-based or functional assay.

Where two headings read alike, the source gives them in different places.

In the case of “human wild-type leptin (recombinant, unmodified) (from UniProt P41159 22-167) (ligand)”, in assay [1], the EC50 of STAT3-responsive dual luciferase reporter in HEK293 cells transiently transfected with human LepRb (whole receptor on cells); leptin 50 fM to 500 nM, 18 h was found to be 0.1 nM.

With “murine leptin (recombinant, unmodified) (from UniProt P41160 22-167) (ligand)”, the EC50 of STAT3-responsive dual luciferase reporter in HEK293 cells transiently transfected with human LepRb (whole receptor on cells); leptin 50 fM to 500 nM, 18 h in assay [1] is 0.04 nM.

In the case of “huLeptin^W100E (recombinant, unmodified) (from UniProt P41159 22-167) (ligand)”, the EC50 of STAT3-responsive dual luciferase reporter in HEK293 cells transiently transfected with human LepRb (whole receptor on cells); leptin 50 fM to 500 nM, 18 h in assay [1] was determined as 0.1 nM. On the same count and under the same terms, the result for “huLeptin^W100Q (recombinant, unmodified) (from UniProt P41159 22-167) (ligand)” reads 0.13 nM.

Consider “PAS(200)-huLeptin (human wild-type leptin, PASylated) (from UniProt P41159 22-167) (ligand)”, for which the EC50 of STAT3-responsive dual luciferase reporter in HEK293 cells transiently transfected with human LepRb (whole receptor on cells); PASylated leptin 50 fM to 500 nM, 18 h in assay [1] was 1.2 nM.

B1: His6-PAS(200)-muLeptin (ligand)
chain: ASPAAPAPASPAAPAPSAPAASPAAPAPASPAAPAPSAPAASPAAPAPASPAAPAPSAPAASPAAPAPASPAAPAPSAPAASPAAPAPASPAAPAPSAPAASPAAPAPASPAAPAPSAPAASPAAPAPASPAAPAPSAPAASPAAPAPASPAAPAPSAPAASPAAPAPASPAAPAPSAPAASPAAPAPASPAAPAPSAPAAVPIQKVQDDTKTLIKTIVTRINDISHTQSVSAKQRVTGLDFIPGLHPILSLSKMDQTLAVYQQVLTSLPSQNVLQIANDLENLRDLLHLLAFSKSCSLPQTSGLQKPESLDGVLEASLYSTEVVALSRLQGSLQDILQQLDVSPEC
For B1, in assay [2], the “EC50 of STAT3-responsive dual luciferase reporter in HEK293 cells transiently transfected with human LepRb (whole receptor on cells); PASylated leptin 50 fM to 500 nM, 18 h” value came out at 0.16 nM.

The record behind these values is PMC12135040, “Long-Acting Human PASylated Leptin Reaches the Murine Central Nervous System and Offers Potential for Optimized Replacement Therapy” (Molecular Pharmaceutics, 2025).
